{
  "source": "paper PMC5882628",
  "about": "“Development of a Cell-Based Assay to Assess Binding of the proNGF Prodomain to Sortilin” (Cellular and Molecular Neurobiology, 2017)",
  "tested_on": "empty vector control-transfected cells",
  "assay": "GSTpro signal in empty vector control-transfected HEK293 cells",
  "format": "cell-based, human",
  "conditions": "Fig. 3a, c, d",
  "method": "HEK 293 cells were grown in DMEM with 10% fetal bovine serum. They were transfected with plasmids either encoding wild type sortilin, or sortilin with a mutation that renders it endocytosis deficient, or an empty control vector according to manufacturer’s instructions using 20 µg lipofectamine (Thermo Fischer Scientific) with 8 µg DNA on […] per 6 cm, poly-lysine coated dish. The cells were initially plated into 24-well dishes after transfection. That intermediate step rendered more uniform cell numbers in the 96-well dishes that were used to run the actual assay. 24 h later, cells were split into black opaque-walled, clear-bottom 96 well dishes at 42000 cells in 80 µl medium/well. […]\nThe fixed cells were washed with PBS for 15 min, followed by two 15 min washes with PBS with 0.1% Triton X-100. […] Wells to be evaluated for blocking of the sortilin-GSTpro interaction by antibodies were only stained with an antibody against the pro domain of proNGF in 10% FBS at a dilution of 1:1500 (Millipore (N-term) clone EPI318Y, Rabbit Monoclonal Antibody Catalog Number: #04-1142). […]\nThe following day, wells were washed 3 × 15 min with PBS/0.1% Triton X-100. […] Cellular fluorescence was quantified using an array scanner and the “Neuronal Profiler” Bioapplication (Thermo Fisher Scientific) as described below. […]",
  "data": [
    {"molecule": "GSTpro: fusion of Glutathione S-transferase (GST) merged at the C-terminal of GST to the pro part (19–121) of human proNGF (protein, left off: GST, N-terminal, kept, fusion of Glutathione S-transferase (GST) merged at the C-terminal of GST to the pro part (19–121) of human proNGF) EPHSESNVPAGHTIPQAHWTKLQHSLDTALRRARSAPAAAIAARVAGQTRNITVDPRLFKKRRLRSPRVLFSTQPPREAADTQDLDFEVGGAAPFNRTHRSKR", "values": [
      {"measurement": "GSTpro binding signal in empty vector cells (in words)", "value": "only very low signal"}
    ]}
  ]
}
